In publication PMC10198640:

Biological target: T1, recombinant soluble form of the extracellular domain of DC-SIGN, Q9NNX6
T1 chain: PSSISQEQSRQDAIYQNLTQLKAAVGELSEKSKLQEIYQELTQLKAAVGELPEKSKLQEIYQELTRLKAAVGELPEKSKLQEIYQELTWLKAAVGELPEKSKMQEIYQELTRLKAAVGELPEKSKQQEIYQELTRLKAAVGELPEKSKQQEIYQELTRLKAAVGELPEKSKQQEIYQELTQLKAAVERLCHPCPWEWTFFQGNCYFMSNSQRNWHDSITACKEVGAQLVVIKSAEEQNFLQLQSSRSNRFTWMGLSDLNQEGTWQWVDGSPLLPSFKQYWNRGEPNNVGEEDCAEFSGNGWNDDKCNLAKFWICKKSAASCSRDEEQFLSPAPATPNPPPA
Test: native gel or EMSA; denaturing and nondenaturing polyacrylamide gel electrophoresis of the refolded, purified protein (fig. S2, A and B)
Settings: remark: other sources report otherwise

B1: recombinant soluble form of the extracellular domain of DC-SIGN, Q9NNX6 64-404 (domain or fragment)
chain: PSSISQEQSRQDAIYQNLTQLKAAVGELSEKSKLQEIYQELTQLKAAVGELPEKSKLQEIYQELTRLKAAVGELPEKSKLQEIYQELTWLKAAVGELPEKSKMQEIYQELTRLKAAVGELPEKSKQQEIYQELTRLKAAVGELPEKSKQQEIYQELTRLKAAVGELPEKSKQQEIYQELTQLKAAVERLCHPCPWEWTFFQGNCYFMSNSQRNWHDSITACKEVGAQLVVIKSAEEQNFLQLQSSRSNRFTWMGLSDLNQEGTWQWVDGSPLLPSFKQYWNRGEPNNVGEEDCAEFSGNGWNDDKCNLAKFWICKKSAASCSRDEEQFLSPAPATPNPPPA
stoichiometry N: 4
